{
  "source": "paper PMC7954794",
  "about": "(2021)",
  "parents": {"B1": {"name": "S. cerevisiae Abp1 (full length; SH3 domain 535-592 mutated) / Hua2 (parent complex)", "chain 1": "MALEPIDYTTHSREIDAEYLKIVRGSDPDTTWLIISPNAKKEYEPESTGSSFHDFLQLFDETKVQYGLARVSPPGSDVEKIIIIGWCPDSAPLKTRASFAANFAAVANNLFKGYHVQVTARDEDDLDENELLMKISNAAGARYSIQTSSKQQGKASTPPVKKSFTPSKSPAPVSKKEPVKTPSPAPAAKISSRVNDNNDDDDWNEPELKERDFDQAPLKPNQSSYKPIGKIDLQKVIAEEKAKEDPRLVQKPTAAGSKIDPSSDIANLKNESKLKRDSEFNSFLGTTKPPSMTESSLKNDDDKVIKGFRNEKSPAQLWAERKAKQNSGNAETKAEAPKPEVPEDEPEGEPDVKDLKSKFEGLAASEKEEEEMENKFAPPPKKSEPTIISPKPFSKPQEPVKAEEAEQPKTDYKKIGNPLPGMHIEADNEEEPEENDDDWDDDEDEAAQPPLPSRNVASGAPVQKEEPEQEEIAPSLPSRNSIPAPKQEEAPEQAPEEEIEEEAEEAAPQLPSRSSAAPPPPPRRATPEKKPKENPWATAEYDYDAAEDNELTFVENDKIINIEFVDDDWWLGELEKDGSKGLFPSNYVSLGN", "chain 2": "MQQTKFGKMYLDHDSVVEYSEDEIVEADRITLGYKKRLSMIENQMRHLLEDFSLDVQQIEPILADLQKYYDAFLQLLQKRNKSLQCKRSTHQPVPSPMNSQTSTNAKVNLSGKLMKFQLNSVQKFDEENILRILQNKIEFEHYFQIDKGKKQKVLLLAVYQCLNGPTRLHKVLNIEGIIHNNSIRTILGKQVSSSKWTVFLYDVKLVLLAHRQDVPNLETSKMIVRYGDLFPCALYFKDHTAY"}},
  "data": [
    {"variants_of": "B1", "assay": "DHFR protein-fragment complementation in yeast (Abp1-DHFR F[1,2] x partner-DHFR F[3]), deep mutational scanning, second methotrexate selection vs reference; S. cerevisiae, DHFR-PCA selection in liquid with methotrexate at 30 C, two 72 h selections (the score uses the second); reference = the pre-selection culture", "values": [
      {"variant": "chain 1 P535E", "screen value": "1.04 DMS score: mean over two replicates of log2(f_test/f_ref + 0.5)/ln 2, minus the synonymous-codon median (not a log2 …"},
      {"variant": "chain 1 P535D", "screen value": "0.473 DMS score: mean over two replicates of log2(f_test/f_ref + 0.5)/ln 2, minus the synonymous-codon median (not a log2 …"},
      {"variant": "chain 1 L590F", "screen value": "-0.882 DMS score: mean over two replicates of log2(f_test/f_ref + 0.5)/ln 2, minus the synonymous-codon median (not a log2 …"},
      {"variant": "chain 1 S579N", "screen value": "0.51 DMS score: mean over two replicates of log2(f_test/f_ref + 0.5)/ln 2, minus the synonymous-codon median (not a log2 …"},
      {"variant": "chain 1 S579K", "screen value": "-0.28 DMS score: mean over two replicates of log2(f_test/f_ref + 0.5)/ln 2, minus the synonymous-codon median (not a log2 …"},
      {"variant": "chain 1 S579C", "screen value": "-0.407 DMS score: mean over two replicates of log2(f_test/f_ref + 0.5)/ln 2, minus the synonymous-codon median (not a log2 …"},
      {"variant": "chain 1 L571A", "screen value": "-0.0753 DMS score: mean over two replicates of log2(f_test/f_ref + 0.5)/ln 2, minus the synonymous-codon median (not a log2 …"},
      {"variant": "chain 1 N592E", "screen value": "1.16 DMS score: mean over two replicates of log2(f_test/f_ref + 0.5)/ln 2, minus the synonymous-codon median (not a log2 …"},
      {"variant": "chain 1 N592G", "screen value": "0.394 DMS score: mean over two replicates of log2(f_test/f_ref + 0.5)/ln 2, minus the synonymous-codon median (not a log2 …"},
      {"variant": "chain 1 N592S", "screen value": "0.526 DMS score: mean over two replicates of log2(f_test/f_ref + 0.5)/ln 2, minus the synonymous-codon median (not a log2 …"},
      {"variant": "chain 1 N592W", "screen value": "-0.139 DMS score: mean over two replicates of log2(f_test/f_ref + 0.5)/ln 2, minus the synonymous-codon median (not a log2 …"},
      {"variant": "chain 1 D544P", "screen value": "-0.888 DMS score: mean over two replicates of log2(f_test/f_ref + 0.5)/ln 2, minus the synonymous-codon median (not a log2 …"},
      {"variant": "chain 1 D544T", "screen value": "0.786 DMS score: mean over two replicates of log2(f_test/f_ref + 0.5)/ln 2, minus the synonymous-codon median (not a log2 …"},
      {"variant": "chain 1 D544K", "screen value": "1.68 DMS score: mean over two replicates of log2(f_test/f_ref + 0.5)/ln 2, minus the synonymous-codon median (not a log2 …"},
      {"variant": "chain 1 D544Q", "screen value": "0.66 DMS score: mean over two replicates of log2(f_test/f_ref + 0.5)/ln 2, minus the synonymous-codon median (not a log2 …"},
      {"variant": "chain 1 D544N", "screen value": "-0.362 DMS score: mean over two replicates of log2(f_test/f_ref + 0.5)/ln 2, minus the synonymous-codon median (not a log2 …"},
      {"variant": "chain 1 D544V", "screen value": "0.356 DMS score: mean over two replicates of log2(f_test/f_ref + 0.5)/ln 2, minus the synonymous-codon median (not a log2 …"},
      {"variant": "chain 1 D544H", "screen value": "0.503 DMS score: mean over two replicates of log2(f_test/f_ref + 0.5)/ln 2, minus the synonymous-codon median (not a log2 …"},
      {"variant": "chain 1 D544W", "screen value": "0.0871 DMS score: mean over two replicates of log2(f_test/f_ref + 0.5)/ln 2, minus the synonymous-codon median (not a log2 …"},
      {"variant": "chain 1 D544Y", "screen value": "-0.602 DMS score: mean over two replicates of log2(f_test/f_ref + 0.5)/ln 2, minus the synonymous-codon median (not a log2 …"},
      {"variant": "chain 1 D544F", "screen value": "0.632 DMS score: mean over two replicates of log2(f_test/f_ref + 0.5)/ln 2, minus the synonymous-codon median (not a log2 …"},
      {"variant": "chain 1 E555Y", "screen value": "-0.189 DMS score: mean over two replicates of log2(f_test/f_ref + 0.5)/ln 2, minus the synonymous-codon median (not a log2 …"},
      {"variant": "chain 1 E555F", "screen value": "-0.693 DMS score: mean over two replicates of log2(f_test/f_ref + 0.5)/ln 2, minus the synonymous-codon median (not a log2 …"},
      {"variant": "chain 1 E555A", "screen value": "1.03 DMS score: mean over two replicates of log2(f_test/f_ref + 0.5)/ln 2, minus the synonymous-codon median (not a log2 …"},
      {"variant": "chain 1 E555M", "screen value": "0.105 DMS score: mean over two replicates of log2(f_test/f_ref + 0.5)/ln 2, minus the synonymous-codon median (not a log2 …"},
      {"variant": "chain 1 L582K", "screen value": "-2.94 DMS score: mean over two replicates of log2(f_test/f_ref + 0.5)/ln 2, minus the synonymous-codon median (not a log2 …"},
      {"variant": "chain 1 D567A", "screen value": "-2.23 DMS score: mean over two replicates of log2(f_test/f_ref + 0.5)/ln 2, minus the synonymous-codon median (not a log2 …"},
      {"variant": "chain 1 E573T", "screen value": "0.75 DMS score: mean over two replicates of log2(f_test/f_ref + 0.5)/ln 2, minus the synonymous-codon median (not a log2 …"},
      {"variant": "chain 1 E573I", "screen value": "-0.283 DMS score: mean over two replicates of log2(f_test/f_ref + 0.5)/ln 2, minus the synonymous-codon median (not a log2 …"},
      {"variant": "chain 1 E573V", "screen value": "0.415 DMS score: mean over two replicates of log2(f_test/f_ref + 0.5)/ln 2, minus the synonymous-codon median (not a log2 …"},
      {"variant": "chain 1 E573Q", "screen value": "-0.0881 DMS score: mean over two replicates of log2(f_test/f_ref + 0.5)/ln 2, minus the synonymous-codon median (not a log2 …"},
      {"variant": "chain 1 N586Q", "screen value": "-1.03 DMS score: mean over two replicates of log2(f_test/f_ref + 0.5)/ln 2, minus the synonymous-codon median (not a log2 …"},
      {"variant": "chain 1 N586V", "screen value": "1.04 DMS score: mean over two replicates of log2(f_test/f_ref + 0.5)/ln 2, minus the synonymous-codon median (not a log2 …"},
      {"variant": "chain 1 N586S", "screen value": "2 DMS score: mean over two replicates of log2(f_test/f_ref + 0.5)/ln 2, minus the synonymous-codon median (not a log2 …"},
      {"variant": "chain 1 N586C", "screen value": "2.04 DMS score: mean over two replicates of log2(f_test/f_ref + 0.5)/ln 2, minus the synonymous-codon median (not a log2 …"},
      {"variant": "chain 1 N586T", "screen value": "1.83 DMS score: mean over two replicates of log2(f_test/f_ref + 0.5)/ln 2, minus the synonymous-codon median (not a log2 …"},
      {"variant": "chain 1 N586G", "screen value": "2.37 DMS score: mean over two replicates of log2(f_test/f_ref + 0.5)/ln 2, minus the synonymous-codon median (not a log2 …"},
      {"variant": "chain 1 N586A", "screen value": "1.82 DMS score: mean over two replicates of log2(f_test/f_ref + 0.5)/ln 2, minus the synonymous-codon median (not a log2 …"}
    ]}
  ]
}
